Measured values: US20130045922A1 (CHILDREN S MEDICAL CENTER, published 2013)

Target: I^125-VEGF
Test: cell-based or functional assay

Sequence of I^125-VEGF (P15692 whole entry): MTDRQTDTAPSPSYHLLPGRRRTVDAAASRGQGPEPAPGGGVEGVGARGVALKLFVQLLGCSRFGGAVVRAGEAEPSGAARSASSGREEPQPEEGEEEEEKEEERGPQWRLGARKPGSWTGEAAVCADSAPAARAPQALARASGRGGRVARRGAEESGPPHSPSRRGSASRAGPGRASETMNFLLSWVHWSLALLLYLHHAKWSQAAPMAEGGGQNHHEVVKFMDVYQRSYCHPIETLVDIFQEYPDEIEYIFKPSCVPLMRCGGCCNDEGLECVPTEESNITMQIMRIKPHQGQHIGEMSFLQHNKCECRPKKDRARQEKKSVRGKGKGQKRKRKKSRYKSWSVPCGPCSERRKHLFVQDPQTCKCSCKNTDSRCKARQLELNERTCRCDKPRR

ability of endothelial cells to bind VEGF in the presence of peptide: > 2 fold over original #237
Binder: DRVQAQTTTVVA [Ala-5 (DRVQAQTTTVVA)]
